{"source": "paper doi:10.1101/2022.11.05.515281v1", "proteins": {"B1": {"name": "MSMEG_2027 (Mycolicibacterium smegmatis MC2 155) (protein)", "chain": "MTDAELSPTDWVREQTERILEQGTTDGVHVLDRPIVLFTTTGAKSGKKRYVPLMRVEENGKYAMVASKGGDPKHPSWYFNVKANPTVSVQDGDKVLPDRTARELEGEEREHWWKLAVEAYPPYAEYQTKTDRLIPVFIVE"}, "B2": {"name": "MSMEG_2850 (Mycolicibacterium smegmatis MC2 155) (protein)", "chain": "MTEAIDWDQMNNQVIKEFRETGGKAGGLFEGSPLVLVHHTGAKSGKQRIAPLVPLLDGDRIYIFGSKGGADSHPDWYHNLVANPDTVVELGTETFPVKARVLTGAERDEIYAKQVAVAPQFGDYQRKTTRVIPVVELQRV"}}, "assay_in_all_cases": "purified protein, by the assay type", "key": {"[1]": {"substrate": "CC1=CCCC1=O"}, "[2]": {"substrate": "C=C(C)[C@H]1CC=C(C)C(=O)C1"}, "[3]": {"substrate": "CC1=CC(=O)CC(C)(C)C1=O"}, "[4]": {"substrate": "CC1=CC(=O)[C@H]2C[C@@H]1C2(C)C"}, "[5]": {"substrate": "COC(=O)C1=CCCCC1"}, "[6]": {"substrate": "O=[N+]([O-])C1=CCCCC1"}, "[7]": {"substrate": "CC1=CC(=O)CC1"}}, "data": [{"protein": "B1", "values": [{"measurement": "Km", "setting": "[1]", "result": "1514 ± 111", "unit": "µM"}, {"measurement": "kcat", "setting": "[1]", "result": "0.783 ± 0.0157", "unit": "s⁻¹"}, {"measurement": "kcat/Km", "setting": "[1]", "result": "517 ± 30.8", "unit": "M⁻¹ s⁻¹"}, {"measurement": "Km", "setting": "[2]", "result": "3099 ± 916.4", "unit": "µM"}, {"measurement": "kcat", "setting": "[2]", "result": "0.12 ± 0.0114", "unit": "s⁻¹"}, {"measurement": "kcat/Km", "setting": "[2]", "result": "38.7 ± 8.62", "unit": "M⁻¹ s⁻¹"}, {"measurement": "Km", "setting": "[3]", "result": "4550 ± 360.6", "unit": "µM"}, {"measurement": "kcat", "setting": "[3]", "result": "0.459 ± 0.013", "unit": "s⁻¹"}, {"measurement": "kcat/Km", "setting": "[3]", "result": "101 ± 5.7", "unit": "M⁻¹ s⁻¹"}, {"measurement": "Km", "setting": "[4]", "result": "2583 ± 667.2", "unit": "µM"}, {"measurement": "kcat", "setting": "[4]", "result": "0.048 ± 0.0049", "unit": "s⁻¹"}, {"measurement": "kcat/Km", "setting": "[4]", "result": "18.6 ± 3.22", "unit": "M⁻¹ s⁻¹"}]}, {"protein": "B2", "values": [{"measurement": "Km", "setting": "[5]", "result": "4355 ± 312.6", "unit": "µM"}, {"measurement": "kcat", "setting": "[5]", "result": "0.279 ± 0.0071", "unit": "s⁻¹"}, {"measurement": "kcat/Km", "setting": "[5]", "result": "64.1 ± 3.29", "unit": "M⁻¹ s⁻¹"}, {"measurement": "Km", "setting": "[6]", "result": "1739 ± 136.9", "unit": "µM"}, {"measurement": "kcat", "setting": "[6]", "result": "1.07 ± 0.0295", "unit": "s⁻¹"}, {"measurement": "kcat/Km", "setting": "[6]", "result": "617 ± 35", "unit": "M⁻¹ s⁻¹"}, {"measurement": "Km", "setting": "[7]", "result": "862 ± 508", "unit": "µM"}, {"measurement": "kcat", "setting": "[7]", "result": "0.018 ± 0.0026", "unit": "s⁻¹"}, {"measurement": "kcat/Km", "setting": "[7]", "result": "21 ± 10.5", "unit": "M⁻¹ s⁻¹"}]}]}
